Non-standard residues stand in square brackets, D forms with d. Residues, ends and D or L forms follow the SMILES beside them. dPhe(4-Cl) = N[C@H](Cc1ccc(Cl)cc1)C(=O)O; d2Nal = N[C@H](Cc1ccc2ccccc2c1)C(=O)O; dCit = NC(=O)NCCC[C@@H](N)C(=O)O; d3Pal = N[C@H](Cc1cccnc1)C(=O)O

Assay [1] concerns bilateral ovariectomized female C57BL/6JRj mice. In words: Menopausal mouse model: temperature and tissue weights. The format is in vivo. The following applies: for Body weight compared with vehicle: after 10 days treatment. The method, then: Bilateral ovariectomized female C57BL/6JRj mice, 8 weeks of age, were included in the study and administered with IgG2b (control) or 1 of 3 test articles (LH-β ab, LHCGR ab or GnRH antagonist) either at study day 1, or once a day for 9 days. The control/vehicle treatment was a non-specific antibody (IgG2b). The route of administration was through intraperitoneal (i.p.) injection. The study had four groups in total (Table 3); group 1 (female, n=6) was treated i.p. with IgG2b (control) on study day 1 and day 5, group 2 (female, n=3) was treated i.p. with LH-β ab at study day 1, group 3 (female, n=3) was treated i.p. with LHCGR ab at study day 1, group 4 (female, n=3) was treated i.p. with GnRH antagonist once a day (q.d.) for 9 days. Blood for preparation of serum was collected prior to dosing on study day 1 and at termination on study day 10. Core temperature and skin temperature were determined in female mice pre-dose on study day 1, at study day 5 and at termination on study day 10.
Seventeen (17) ovariectomized C57BL/6JRj female mice 8 weeks of age were supplied by Janvier Labs France. The ovaries from the female mice were surgically removed by the supplier. The mice were caged in European IVC cages type IIL. Temperature was 20° C. to 24° C. and the light cycle 12-hour dark and 12-hour light (lights on 06.00). The diet was Altromin 1324, produced by Altromin, Im Seelenkamp 20, 32791 Lage, Germany.
Temperature measurements were done using rectal thermometer (thermometer BIO-TK8851 combined with rectal probe BIO-BRET-3, both from BIOSEB Lab instruments) for core temperature and infrared (153-IRB Infrared Thermometer, BIOSEB Lab instruments) for skin temperature. The core temperature was recorded rectally, and skin temperature was recorded at the tail and the head between the ears at the same time of the day (morning). Immediately after termination, tissues (fat and thyroid mass) were dissected, weighed, placed in Eppendorf tubes and snap frozen by emerging the tube in liquid nitrogen or placed in histology jar and fixed in 4% neutral buffered formalin.

The test system is the same in assay [2]. The experiment in a line: Calcium excretion and kidney weight in menopause mouse model. The settings on record: for kidney weight compared with vehicle (IgG2b): female mice without ovaries; for kidney weight compared with vehicle (IgG2b) / calcium excretion: day 10; for calcium excretion: female mouse model. The format is in vivo. The method, then:
(§1) Bilateral ovariectomized female C57BL/6JRj mice, 8 weeks of age, were included in the study and administered with IgG2b (control) or 1 of 3 test articles (LH-β ab, LHCGR ab or GnRH antagonist) either at study day 1, study day 1 and 5 or once a day for 9 days. The route of administration was through intraperitoneal (i.p.) injection. The study included be 6 groups in total (Table 6); group 1 (female, n=6) was treated i.p. with IgG2b (control) on study day 1 and day 5, group 2 (female, n=3) was treated i.p. with LH-β ab at study day 1, group 3 (female, n=1) was treated i.p. with LH-β AB on study day 1 and day 5, Group 4 (female, n=3) was treated i.p. with LHCGR ab at study day 1, group 5 (female, n=1) was treated i.p. with LHCGR ab on study day 1 and day 5, group 6 (female, n=3) was treated i.p. with GnRH antagonist once a day (q.d.) for 9 days. Blood for preparation of serum was collected prior to dosing on study day 1 and at termination on study day 10. Urine and kidneys were collected on day 10.
Seventeen (17) bilateral ovariectomized C57BL/6JRj female mice 8 weeks of age, were supplied by Janvier Labs France. The ovaries from the female mice were surgically removed by the supplier (see also Table 6). Fourteen (14) C57BL/6JRj male mice were also stratified into the different groups except that no male mice were treated with GnRH antagonist, and the male mice were therefore only stratified into groups 1-5 (see also Table 7).

In a further assay the test system is human kidney tissue. The experiment in a line: Ex vivo culture of human kidney tissue, qRT-PCR gene expression. The format is cell-based. The protocol:
Human kidney tissues from 5 adults (4 men, 1 […]) were cultured. All donors underwent partial nephrectomy due to suspected malignant kidney tumors and a pathologist removed tissues outside the malignant area. Kidney specimens were dissected in small pieces 1 mm^3 and cultured for either 3 or 24 hours in a hanging drop ex vivo model.
Gene expression profiling was done by qRT-PCR analyzing levels of calcium transporters SLC12A-1, SLC12A-2, TRPV5 as well as calcium-sensing receptor (CASR). The inventors also measured kidney expression of exon 2-4 and 11 of LHCGR using a primer-sequence previously validated by sequencing of the product from both serum and testis tissue. As calcium transporters are differentially expressed in the different parts of the nephron, all samples were standardized according to the expression of Uromodulin (UMOD), a protein located in the thick ascending limb of the loop of Henle and subsequently to MAP3K7 expressed in the distal convoluted tubules and in addition to being standardized to the housekeeping gene, RPS20. Ethical committee approval: H-17004362. All samples were analyzed with ANOVA with control/baseline as reference value and every p-value presented was adjusted for multiple comparisons with Dunnett's post hoc test.

The subject of another assay is C57BL/6JRj male mice. In words: Calcium excretion and kidney weight in normal male mice. The format is in vivo. The method, then: as §1
Seventeen (17) bilateral ovariectomized C57BL/6JRj female mice 8 weeks of age, were supplied by Janvier Labs France. The ovaries from the female mice were surgically removed by the supplier (see also Table 6). […]

On to `CC(=O)N[C@H](Cc1ccc2ccccc2c1)C(=O)N[C@H](Cc1ccc(Cl)cc1)C(=O)N[C@H](Cc1cccnc1)C(=O)N[C@@H](CO)C(=O)N[C@@H](Cc1ccc(O)cc1)C(=O)N[C@H](CCCNC(N)=O)C(=O)N[C@@H](CC(C)C)C(=O)N[C@@H](CCCNC(=N)N)C(=O)N1CCC[C@H]1C(=O)N[C@H](C)C(N)=O` [GnRH antagonist, Cetrorelix, reference compound] (Ac-[d2Nal][dPhe(4-Cl)][d3Pal]SY[dCit]LRP[dA]-NH2), for which, in assay [1] (10 days), the visceral fat mass result was “suppressed”. In assay [1], the “Body weight compared with vehicle” value is on record as “lower”. Besides, in assay [2], the “kidney weight compared with vehicle (IgG2b)” value is “slightly lower” and the calcium excretion result is reported as “suppressed calcium excretion”.
Take `C[C@]12CC[C@H]3[C@@H](CCC4=CC(=O)CC[C@@]43C)[C@@H]1CC[C@@H]2O` [testosterone, reference compound]: the “expression of LHCGR exon 11” value with human kidney tissue (three hours ex vivo culture, 5 out of 5 below detection vs vehicle 3 out of 10) is “suppressed”.

B1: PTH: parathyroid hormone, added to kidney tissue culture media at 0.01 pg/mL (protein, UniProt P01270 32-115, looked up)
Parathyroid hormone: SVSEIQLMHNLGKHLNSMERVEWLRKKLQDVHNFVALGAPLAPRDAGSQRPRKKEDNVLVESHEKSLGEADKADVNVLTKAKSQ
modifications: Parathyroid hormone
notes: parathyroid hormone, added to kidney tissue culture media at 0.01 pg/mL
With B1, the TRPV5 expression entry in the assay with human kidney tissue (after 24 hours) was “significantly increased”.

B2: LH-β ab: Monoclonal mouse antibody (IgG2B; Kappa) targeting mouse LH beta; variable light chain SEQ ID NO: 5, heavy chain SEQ ID NO: 9 (antibody)
heavy: MEWRIFLFILSGTAGVHSQVQLQQSGPELVKPGTSLKLSCKASGYTFTDYVLTWVKQRTGQGLEWIGEIYPGSGSTSYNEKFRGKATLTADKSSNTAYMQLSSLTSEDSAVYFCAHLYYADYDFSYWGQGTLVTVSAAKTTPPSVYPLAPGCGDTTGSSVTLGCLVKGYFPESVTVTWNSGSLSSSVHTFPALLQSGLYTMSSSVTVPSSTWPSQTVTCSVAHPASSTTVDKKLE
light: MKLPVRLLVLMFWIPVSSSDVLMTQIPLSLVVSLGDQASISCRSSQNIVQSNGNTYLEWYLQKPGQSPKLLIYKVSNRFSGVPDRFSGSGSGTDFTLKISRVEAEDLGVYYCFQGSHVPLTFGAGTKLELKRADAAPTVSIFPPSSEQLTSGGASVVCFLNNFYPKDINVKWKIDGSERQNGVLNSWTDQDSKDSTYSMSST
B2: in assay [1] (10 days), the subcutaneous fat mass entry is reported as “suppressed”, the thyroid mass result is reported as “lowered” and the visceral fat mass entry is “suppressed”. Further, in assay [1], the “Body weight compared with vehicle” value is given as “lower”. Further, the “increase of core temperature relative to baseline” value in assay [1] (day 5 and 10) is 8%. The “change in body weight versus vehicle” value in assay [1] (most pronounced in the first 5 days) is listed as “effective in suppressing the effect of menopause (gonadectomy) on weight induction”. In assay [2], the “kidney weight compared with vehicle (IgG2b)” value was “slightly lower” and the calcium excretion result is recorded as “suppressed calcium excretion”. For the same molecule, in assay [2] (high dosage, female mice), the calcium excretion suppressed is 70%. Also, in the assay with C57BL/6JRj male mice (all concentrations), the calcium excretion entry was “reduced calcium excretion”. Besides, in the assay with C57BL/6JRj male mice (day 10), the “kidney weight compared with vehicle (IgG2b)” value is recorded as “slightly lower”.

The values are drawn from US20260183363A1, “INHIBITION OF LUTEINIZING HORMONE (LH) ACTION AS TREATMENT OF PERIMENOPAUSAL AND POSTMENOPAUSAL SYMPTOMS AND COMPLICATIONS” (RIGSHOSPITALET, priority 2022, published 2026).
